This is an account of results in patent publication US20200181262A1 (published 2020).

The target in test [1] is T1, monomeric His-tagged human FcRn (hFcRn) (JTA) (human, UniProt P55899 24-290; P61769 21-119, limits assumed).
T1 construct: In-house soluble His-tagged FcRn; also called monomeric human FcRn produced in-house; not shown: His tag
Nature of the test: SPR (Biacore 3000), mAb amine-coupled, His-tagged hFcRn injected, 1:1 Langmuir, pH 7.4. (SPR reads the build-up and loss of mass on a sensor chip optically.)

Test [2] has as its target T2, FcRn (analyte of the BIACORE studies of Tables 9-11, tables titled anti-human FcRn mAbs) (human, UniProt P55899 24-290; P61769 21-119).
T2 construct: also called analyte (FcRn)
As to the kind of experiment: SPR, antibody captured on protein A, FcRn 50-0.02 nM, 1:1 model.
Method: For kinetic analysis, a 2-fold dilution range was selected from 50-0.02 nM FcRn. The association phase of FcRn analyte was monitored for 450 seconds, and dissociation was measured for 1500 seconds, at 40 μl/min. Fc1 was a reference channel and was subtracted from other flow cells to correct for non-specific binding. Kinetic values are based on a 1:1 binding model (Table 11).

Test [3] deals with T1, monomeric His-tagged human FcRn (hFcRn) …. As to the kind of experiment: SPR (Biacore 3000), mAb amine-coupled, His-tagged hFcRn injected, 1:1 Langmuir, pH 6.0.
Method: The coupling was performed by injecting 3 μg/ml of each protein into 10 mM sodium acetate, pH 4.5 (GE Healthcare), using the amine coupling kit (GE Healthcare). […] All SPR experiments were conducted at 25° C. with a flow rate of 40 μl/min. Binding data were zero-adjusted, and the reference cell value subtracted. The Langmuir 1:1 ligand binding model provided by the BIAevaluation software (version 4.1) was used to determine the binding kinetics. The closeness of the fit is described by the statistical value χ².
For test [4], the target named is T2, FcRn (analyte of the BIACORE studies of …). Nature of the test: SPR (BIACORE), antibody captured on protein A CM5 chip, FcRn analyte.
From the text: Antibodies were captured on a CM5 chip coated with protein A and analyte (FcRn) flowed over the surface.
Test [5] shares this target. As to the kind of experiment: SPR (BIACORE), antibody immobilized on CM5, FcRn injected, 1:1 Langmuir, pH 6.0.
Method: Antibodies were diluted into 10 mM NaAc, pH 4.5, and immobilized onto BIACORE® CM5 chips to RU levels of approximately 500-1000. Analysis was performed by injection of FcRn at concentrations of 12-800 nM in 1×PBS-P at pH 7.4 or pH 6.0.
Test [6] concerns the target T1, monomeric His-tagged human FcRn (hFcRn) …. Nature of the test: SPR (Biacore 3000), mAb amine-coupled, His-tagged hFcRn (JTA) injected, 1:1 Langmuir, pH 6.0.
Method: In a further study, surface plasmon resonance (SPR) was conducted using a Biacore 3000 instrument (GE Healthcare) with CM5 sensor chips coupled with antibodies (˜550 resonance units (RU)) using amine-coupling chemistry as described by the manufacturer. […] All SPR experiments were conducted at 25° C. with a flow rate of 40 μl/min. Binding data were zero-adjusted, and the reference cell value subtracted. The Langmuir 1:1 ligand binding model provided by the BIAevaluation software (version 4.1) was used to determine the binding kinetics. The closeness of the fit is described by the statistical value χ2.
For test [7] the target is unchanged. Nature of the test: SPR (Biacore 3000), H3Vk2 amine-coupled, hFcRn (JTA) injected, 1:1 Langmuir, pH 7.4.
Method: (§1) All SPR experiments were conducted at 25° C. with a flow rate of 40 μl/min. Binding data were zero-adjusted, and the reference cell value subtracted. The Langmuir 1:1 ligand binding model provided by the BIAevaluation software (version 4.1) was used to determine the binding kinetics. The closeness of the fit is described by the statistical value χ2.
Test [8] has as its target human FcRn as expressed in cells (human whole blood; hFcRn transgenic mice) (human, UniProt P55899 24-365; P61769 21-119). As to the kind of experiment: cell-based or functional assay.
Test [9] concerns the target T3, cynomolgus FcRn (cFcRn) obtained from SINO Biological Inc (cynomolgus monkey, UniProt Q8SPV9 24-297; Q8SPW0 21-119).
T3 construct: also called pFcRn (SINO); pFeltn (SINO)
Nature of the test: SPR (Biacore 3000), H3Vk2 amine-coupled, cynomolgus FcRn (SINO) injected, 1:1 Langmuir, pH 7.4.
Method: as §1

Substitutions are numbered along the chain they refer to. Where “and” joins values, the source holds several entries; their conditions need not be identical. Equal values may be shown once.

T1 sequence (P55899 24-290 limits assumed, chain 1 of 2): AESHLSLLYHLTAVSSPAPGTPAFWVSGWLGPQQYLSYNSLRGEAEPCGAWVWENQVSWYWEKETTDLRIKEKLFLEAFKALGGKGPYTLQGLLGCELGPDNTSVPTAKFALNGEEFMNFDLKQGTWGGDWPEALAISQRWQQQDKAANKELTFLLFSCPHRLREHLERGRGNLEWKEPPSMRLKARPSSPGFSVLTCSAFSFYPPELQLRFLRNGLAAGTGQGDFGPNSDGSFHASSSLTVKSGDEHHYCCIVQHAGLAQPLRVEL
T1 sequence (P61769 21-119 limits assumed, chain 2 of 2): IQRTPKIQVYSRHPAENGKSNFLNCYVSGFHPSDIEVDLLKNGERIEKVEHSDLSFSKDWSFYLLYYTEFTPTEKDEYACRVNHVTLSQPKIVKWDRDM
T2 sequence (P55899 24-290 limits assumed, chain 1 of 2): as the sequence (P55899 24-290 limits assumed, chain 1 of 2) above
T2 sequence (P61769 21-119 limits assumed, chain 2 of 2): as the sequence (P61769 21-119 limits assumed, chain 2 of 2) above
T3 sequence (Q8SPV9 24-297 limits assumed, chain 1 of 2): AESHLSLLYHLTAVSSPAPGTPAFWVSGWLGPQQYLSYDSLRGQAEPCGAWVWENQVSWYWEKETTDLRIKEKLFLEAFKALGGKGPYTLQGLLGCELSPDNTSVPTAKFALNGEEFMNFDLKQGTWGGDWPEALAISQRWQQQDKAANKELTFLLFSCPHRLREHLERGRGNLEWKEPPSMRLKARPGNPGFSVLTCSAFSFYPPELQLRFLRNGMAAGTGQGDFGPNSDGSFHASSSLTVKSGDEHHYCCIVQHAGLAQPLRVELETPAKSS
T3 sequence (Q8SPW0 21-119 limits assumed, chain 2 of 2): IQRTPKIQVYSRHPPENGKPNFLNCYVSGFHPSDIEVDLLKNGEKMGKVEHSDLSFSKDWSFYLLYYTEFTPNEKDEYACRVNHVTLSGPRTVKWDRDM
human FcRn as expressed in cells (human whole blood; hFcRn transgenic mice), sequence (P55899 24-365, chain 1 of 2): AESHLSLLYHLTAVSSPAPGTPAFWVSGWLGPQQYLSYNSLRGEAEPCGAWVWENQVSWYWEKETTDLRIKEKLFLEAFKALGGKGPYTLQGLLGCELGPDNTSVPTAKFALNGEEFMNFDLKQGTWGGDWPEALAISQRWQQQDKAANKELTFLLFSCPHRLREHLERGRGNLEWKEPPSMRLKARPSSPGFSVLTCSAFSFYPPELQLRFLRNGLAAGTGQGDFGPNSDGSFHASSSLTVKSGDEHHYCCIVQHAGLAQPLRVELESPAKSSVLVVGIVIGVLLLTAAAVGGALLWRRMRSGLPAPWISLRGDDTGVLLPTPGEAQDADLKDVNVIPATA
human FcRn as expressed in cells (human whole blood; hFcRn transgenic mice), sequence (P61769 21-119, chain 2 of 2): as the sequence (P61769 21-119 limits assumed, chain 2 of 2) above

B1: G9VH1_Vκ2 antibody (antibody, V domains shown)
VH: QVQLVQSGAELKKPGASVKLSCKASGYTFTSYGISWVKQATGQGLEWIGEIYPRSGNTYYNEKFKGRATLTADKSTSTAYMELRSLRSEDSAVYFCARSTTVSPPRVWGTGTTVTVSS
VL: DIQMTQSPSSLSASVGDRVTITCKASDHINNWLAWYQQKPGQAPRLLISGATSLETGVPSRFSGSGTGKDYTLTISSLQPEDFATYYCQQYWSTPYTFGGGTKVEIK
notes: also called G9Vκ2
With B1, the Kd is 4.9 nM in test [1]; 0.39 nM and 0.4 nM in [2]; 7.4 nM in [3]. The kon in [1] stood at 61000 M⁻¹ s⁻¹; in test [2] it was 318000 M⁻¹ s⁻¹; in test [3] it was 85000 M⁻¹ s⁻¹.

B2: VH1_G9/Vκ2_E8 IgG4 (antibody, V domains shown)
VH: B1 VH
VL: B1 VL with P80T, Q89H, W92Y
notes: bivalent IgG4, kappa; also called G9VH1_E8Vκ2; G9VH1E8Vκ2
As for B2, the equilibrium dissociation constant (Kd) in test [4] was found to be 0.84 nM; in test [5], 0.6 nM.

B3: H3VH1_Vκ2 antibody (anti-FcRn mAb H3Vκ2) (antibody, V domains shown)
VH: B1 VH with S103R, R106G, V107I
VL: B1 VL
notes: also called H3Vk2; H3VK2
Take B3: the Kd in test [1] was 5.1 nM; in test [3] it was 3.8 nM; in [6], 3.8 nM; in test [7] it was 4.6 nM; in test [9], 11.9 nM. Further, the “plasma concentration of HuLys11 (human IgG1) in hFcRn transgenic mice after 20 mg/kg” value in [8] is 3 fold.

Usually Kd stands for a measure of binding affinity in units of concentration. A word on the kon: it is the rate constant with which the complex forms. A higher kon goes with faster complex formation.
